Assay results published in patent US20210179716A1 (Pfizer, published 2021).
Where a chain is given by its changes, count along the chain named. Where two headings read alike, the source gives them in different places.

Assays:
cynomolgus CD47 protein [1] = target: T1, cynomolgus CD47 protein (cynomolgus monkey, UniProt A0A2K5X523 19-139); assay: KD; method not stated
T1 construct: also called cyCD47; Cyno CD47

human CD47 protein [2] = target: T2, human CD47 protein (human, UniProt Q08722 19-139, limits assumed); assay: KD; method not stated
T2 construct: Soluble protein used for the KD measurements; construct not described; also called hCD47; CD47 (human)

cynomolgus CD47 protein [3] = target: T1, cynomolgus CD47 protein; assay: half-life of the complex; method not stated
human CD47 protein [4] = target: T2, human CD47 protein; assay: half-life of the complex; method not stated
cynomolgus CD47 protein [5] = target: T1, cynomolgus CD47 protein; assay: KD; method not stated; remark: listed apart in the source
human CD47 protein [6] = target: T2, human CD47 protein; assay: KD; method not stated; remark: listed apart in the source
mouse PD-L1 protein [7] = target: T3, mouse PD-L1 protein (mouse, UniProt Q9EP73 19-238); assay: column 'Cross with mouse?'; method not stated
T3 construct: also called mPD-L1

cynomolgus PD-L1 protein [8] = target: T4, cynomolgus PD-L1 protein (cynomolgus monkey, UniProt G7PSE7 19-238); assay: KD; method not stated
T4 construct: also called cyPD-L1; Cyno PD-L1

human PD-L1 protein [9] = target: T5, human PD-L1 protein (human, UniProt Q9NZQ7 19-238); assay: KD; method not stated
T5 construct: Soluble protein used for the KD measurements; construct not described; also called hPD-L1; CD274

cynomolgus PD-L1 protein [10] = target: T4, cynomolgus PD-L1 protein; assay: half-life of the complex; method not stated
human PD-L1 protein [11] = target: T5, human PD-L1 protein; assay: half-life of the complex; method not stated
cynomolgus PD-L1 protein [12] = target: T4, cynomolgus PD-L1 protein; assay: half-life of the complex; method not stated; remark: listed apart in the source
human PD-L1 protein [13] = target: T5, human PD-L1 protein; assay: half-life of the complex; method not stated; remark: listed apart in the source
cynomolgus PD-L1 protein [14] = target: T4, cynomolgus PD-L1 protein; assay: KD; method not stated; remark: listed apart in the source
human PD-L1 protein [15] = target: T5, human PD-L1 protein; assay: KD; method not stated; remark: listed apart in the source
cynomolgus PD-L1 protein [16] = target: T4, cynomolgus PD-L1 protein; assay: KD; method not stated; remark: listed apart in the source
human PD-L1 protein [17] = target: T5, human PD-L1 protein; assay: KD; method not stated; remark: listed apart in the source
mouse PD-L1 protein [18] = target: T3, mouse PD-L1 protein; assay: KD; method not stated

T5 sequence (Q9NZQ7 19-238 limits assumed): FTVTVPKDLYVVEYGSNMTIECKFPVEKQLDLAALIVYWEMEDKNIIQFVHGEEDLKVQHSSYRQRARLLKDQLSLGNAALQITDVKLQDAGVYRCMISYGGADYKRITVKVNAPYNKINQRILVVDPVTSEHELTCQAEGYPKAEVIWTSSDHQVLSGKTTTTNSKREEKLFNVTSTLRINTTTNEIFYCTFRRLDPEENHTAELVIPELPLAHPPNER
T2 sequence (Q08722 19-139 limits assumed): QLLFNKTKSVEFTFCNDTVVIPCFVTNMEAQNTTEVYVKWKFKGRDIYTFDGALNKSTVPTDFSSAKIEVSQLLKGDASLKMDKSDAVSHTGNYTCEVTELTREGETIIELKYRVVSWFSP
T3 sequence (Q9EP73 19-238 limits assumed): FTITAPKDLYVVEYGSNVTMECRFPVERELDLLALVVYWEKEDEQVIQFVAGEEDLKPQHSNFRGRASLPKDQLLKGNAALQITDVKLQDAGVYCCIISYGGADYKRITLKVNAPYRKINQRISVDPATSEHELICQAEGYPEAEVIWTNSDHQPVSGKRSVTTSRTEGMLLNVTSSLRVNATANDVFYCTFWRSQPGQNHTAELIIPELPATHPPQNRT
T4 sequence (G7PSE7 entry or part of it): as the sequence (Q9NZQ7 19-238 limits assumed) above, with A33T, A34S, S62N, R68Q, Q82R, F173L, T185A, T192I, H215L counted along it

B1: CD47_P14D04_parent (antibody, V domains shown)
VH: EVQLLESGGGLVQPGGSLRLSCAASGFSFSTFTMNWVRQAPGKGLEWVSTISGTGGNTYYADSVKGRFTISRDNSKNTLYLQMNSLRAEDTAVYYCARRRSTVGSNGHSYWFDYWGQGTLVTVSS
VL: not shown
Cynomolgus CD47 protein [1]
  Kd: 9.7 nM
Human CD47 protein [2]
  Kd: 6.39 nM
Cynomolgus CD47 protein [3]
  T1/2: 2.52 min
Human CD47 protein [4]
  T1/2: 3.6 min

B2: CD47_P01A08_parent (antibody, V domains shown)
VH: QVQLVQSGAEVKKPGSSVKVSCKASGYTFSNYAITWVRQAPGQGLEWMGGISPIFGTANYAQKFQGRVTITADESTSTAYMELSSLRSEDTAVYYCARDGGRSSDGGWRGAGMDYWGQGTLVTVSS
VL: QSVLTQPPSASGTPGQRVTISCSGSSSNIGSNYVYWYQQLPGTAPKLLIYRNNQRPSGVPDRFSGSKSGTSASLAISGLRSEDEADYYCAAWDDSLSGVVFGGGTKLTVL
Cynomolgus CD47 protein [1]
  Kd: 2.08 nM
Human CD47 protein [2]
  Kd: 1.72 nM
Cynomolgus CD47 protein [3]
  T1/2: 20.2 min
Human CD47 protein [4]
  T1/2: 21.3 min

B3: P01A11_Y27G_N31S_L54I_G100A_M113L (antibody, V domains shown)
VH: QVQLVQSGAEVKKPGSSVKVSCKASGGTFTSYAISWVRQAPGQGLEWMGGISPIFGTANYAQKFQGRVTITADESTSTAYMELSSLRSEDTAVYYCARDAGRSSDVGWYVGALDVWGQGTLVTVSS
VL: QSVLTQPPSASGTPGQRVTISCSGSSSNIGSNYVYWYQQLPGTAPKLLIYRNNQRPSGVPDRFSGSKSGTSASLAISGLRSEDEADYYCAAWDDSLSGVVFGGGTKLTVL
notes: Variant of P01A11
Cynomolgus CD47 protein [5]
  Kd: 704 nM
Human CD47 protein [6]
  Kd: 497 nM

B4: PDL1_P06A09_parent (antibody, V domains shown)
VH: EVQLVESGGGLVKPGGSLRLSCAASGFTFSNAWMNWVRQAPGKGLEWVGRIKSESDGGTTDYAAPVKGRFTISRDDSKNTLYLQMNSLKTEDTAVYYCTTDYRIDDWGYPYPGMDYWGQGTLVTVSS
VL: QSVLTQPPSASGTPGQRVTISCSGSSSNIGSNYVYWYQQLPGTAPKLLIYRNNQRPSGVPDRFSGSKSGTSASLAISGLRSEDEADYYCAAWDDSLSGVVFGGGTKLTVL
Mouse PD-L1 protein [7]
  Kd: 113 nM
Cynomolgus PD-L1 protein [8]
  Kd: 5.75 nM
Human PD-L1 protein [9]
  Kd: 2.97 nM
Cynomolgus PD-L1 protein [10]
  T1/2: 2.79 min
Human PD-L1 protein [11]
  T1/2: 5.13 min

B5: PDL1_P04D09_parent (antibody, V domains shown)
VH: EVQLLESGGGLVQPGGSLRLSCAASGFTFSSYAMSWVRQAPGKGLEWVSAIGVRGGITYYADSVKGRFTISRDNSKNTLYLQMNSLRAEDTAVYYCARERSVGELVGIDWMDHWGQGTLVTVSS
VL: not shown
Mouse PD-L1 protein [7]
  Kd: 20.4 nM
Cynomolgus PD-L1 protein [8]
  Kd: 1.15 nM
Human PD-L1 protein [9]
  Kd: 0.56 nM
Cynomolgus PD-L1 protein [10]
  T1/2: 20.1 min
Human PD-L1 protein [11]
  T1/2: 43.6 min

B6: PDL1_P04D09_113 (antibody, V domains shown)
VH: B5 VH with W110Q
VL: not shown
Cynomolgus PD-L1 protein [12]
  T1/2: 23.4 min
Human PD-L1 protein [13]
  T1/2: 22.2 min
Cynomolgus PD-L1 protein [14]
  Kd: 1.7 nM
Human PD-L1 protein [15]
  Kd: 1.7 nM

B7: PDL1_P06B05_parent (antibody, V domains shown)
VH: EVQLVESGGGLVKPGGSLRLSCAASGFTFSNAWMNWVRQAPGKGLEWVGRIKTKADGGTTDYAAPVKGRFTISRDDSKNTLYLQMNSLKTEDTAVYYCTTDPGSYWDSVYGGMDYWGQGTLVTVSS
VL: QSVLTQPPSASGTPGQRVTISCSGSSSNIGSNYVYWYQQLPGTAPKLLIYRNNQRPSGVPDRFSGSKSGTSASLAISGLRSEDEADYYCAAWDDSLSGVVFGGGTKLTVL
Mouse PD-L1 protein [7]
  Kd: 207 nM
Cynomolgus PD-L1 protein [8]
  Kd: 8.07 nM
Human PD-L1 protein [9]
  Kd: 4.42 nM
Cynomolgus PD-L1 protein [10]
  T1/2: 10.2 min
Human PD-L1 protein [11]
  T1/2: 28.2 min
Cynomolgus PD-L1 protein [16]
  Kd: 3.11 nM
Human PD-L1 protein [17]
  Kd: 2.36 nM

B8: P06B05_D56E_G57A (antibody, V domains shown)
VH: B7 VH with D56E, G57A
VL: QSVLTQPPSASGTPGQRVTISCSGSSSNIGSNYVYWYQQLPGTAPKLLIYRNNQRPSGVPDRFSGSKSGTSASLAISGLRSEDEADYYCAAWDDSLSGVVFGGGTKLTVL
notes: Variant of P06B05
Cynomolgus PD-L1 protein [16]
  Kd: 92.2 nM
Human PD-L1 protein [17]
  Kd: 95.5 nM
Mouse PD-L1 protein [18]
  Kd: > 1500 nM

B9: P06B05_D56E_G57E (antibody, V domains shown)
VH: B7 VH with D56E, G57E
VL: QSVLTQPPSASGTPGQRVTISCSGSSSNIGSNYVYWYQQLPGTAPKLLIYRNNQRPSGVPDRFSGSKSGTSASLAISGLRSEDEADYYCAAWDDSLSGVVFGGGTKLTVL
notes: Variant of P06B05
Cynomolgus PD-L1 protein [16]
  Kd: 60.6 nM
Human PD-L1 protein [17]
  Kd: 69.7 nM

B10: P06B05_D61A_Y62A (antibody, V domains shown)
VH: B7 VH with D61A, Y62A
VL: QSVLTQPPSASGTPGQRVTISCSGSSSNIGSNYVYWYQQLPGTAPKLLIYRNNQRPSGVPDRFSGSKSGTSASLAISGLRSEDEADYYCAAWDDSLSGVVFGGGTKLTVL
notes: Variant of P06B05
Cynomolgus PD-L1 protein [16]
  Kd: 3.67 nM
Human PD-L1 protein [17]
  Kd: 4.01 nM

B11: P06B05_D61A_Y62E (antibody, V domains shown)
VH: B7 VH with D61A, Y62E
VL: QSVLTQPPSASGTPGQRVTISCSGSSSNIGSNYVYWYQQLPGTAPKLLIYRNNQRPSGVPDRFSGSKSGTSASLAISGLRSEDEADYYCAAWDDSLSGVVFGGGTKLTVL
notes: Variant of P06B05
Cynomolgus PD-L1 protein [16]
  Kd: 3.17 nM
Human PD-L1 protein [17]
  Kd: 3.28 nM

B12: P06B05_D61A_Y62Q (antibody, V domains shown)
VH: B7 VH with D61A, Y62Q
VL: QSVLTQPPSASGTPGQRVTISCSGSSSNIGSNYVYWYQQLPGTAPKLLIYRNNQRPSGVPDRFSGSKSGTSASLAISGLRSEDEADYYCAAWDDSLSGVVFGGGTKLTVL
notes: Variant of P06B05
Cynomolgus PD-L1 protein [16]
  Kd: 4.96 nM
Human PD-L1 protein [17]
  Kd: 5.97 nM

B13: P06B05_D61A_Y62S (antibody, V domains shown)
VH: B7 VH with D61A, Y62S
VL: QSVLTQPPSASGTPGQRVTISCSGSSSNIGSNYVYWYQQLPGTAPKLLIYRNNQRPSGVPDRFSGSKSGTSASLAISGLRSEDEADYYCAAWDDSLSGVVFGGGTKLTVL
notes: Variant of P06B05
Cynomolgus PD-L1 protein [16]
  Kd: 2.75 nM
Human PD-L1 protein [17]
  Kd: 5.37 nM

B14: P06B05_D61E_Y62E (antibody, V domains shown)
VH: B7 VH with D61E, Y62E
VL: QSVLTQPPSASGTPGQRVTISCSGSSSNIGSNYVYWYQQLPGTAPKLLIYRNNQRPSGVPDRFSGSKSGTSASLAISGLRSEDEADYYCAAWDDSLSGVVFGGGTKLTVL
notes: Variant of P06B05
Cynomolgus PD-L1 protein [16]
  Kd: 8.39 nM
Human PD-L1 protein [17]
  Kd: 9.49 nM

B15: P06B05_D61Q_Y62E (antibody, V domains shown)
VH: B7 VH with D61Q, Y62E
VL: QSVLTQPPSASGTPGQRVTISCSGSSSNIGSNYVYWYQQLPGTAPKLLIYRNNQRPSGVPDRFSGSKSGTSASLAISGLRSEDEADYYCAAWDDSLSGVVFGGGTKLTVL
notes: Variant of P06B05
Cynomolgus PD-L1 protein [16]
  Kd: 4.43 nM
Human PD-L1 protein [17]
  Kd: 5.81 nM

B16: P06B05_D61Q_Y62S (antibody, V domains shown)
VH: B7 VH with D61Q, Y62S
VL: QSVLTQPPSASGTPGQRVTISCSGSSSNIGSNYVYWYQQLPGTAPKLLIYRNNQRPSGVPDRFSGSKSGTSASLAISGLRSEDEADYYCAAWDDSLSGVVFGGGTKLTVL
notes: Variant of P06B05
Cynomolgus PD-L1 protein [16]
  Kd: 5.54 nM
Human PD-L1 protein [17]
  Kd: 5.02 nM

B17: P06B05_D61S_Y62A (antibody, V domains shown)
VH: B7 VH with D61S, Y62A
VL: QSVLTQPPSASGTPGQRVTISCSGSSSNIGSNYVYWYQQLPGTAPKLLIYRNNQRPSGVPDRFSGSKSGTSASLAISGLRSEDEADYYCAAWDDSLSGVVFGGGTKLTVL
notes: Variant of P06B05
Cynomolgus PD-L1 protein [16]
  Kd: < 1.19 nM
Human PD-L1 protein [17]
  Kd: 6.71 nM

B18: P06B05_D61S_Y62Q (antibody, V domains shown)
VH: B7 VH with D61S, Y62Q
VL: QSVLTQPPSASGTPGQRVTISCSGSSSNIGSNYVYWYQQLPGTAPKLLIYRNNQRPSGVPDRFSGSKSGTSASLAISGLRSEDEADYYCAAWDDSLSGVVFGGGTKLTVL
notes: Variant of P06B05
Cynomolgus PD-L1 protein [16]
  Kd: 3.73 nM
Human PD-L1 protein [17]
  Kd: 5.98 nM

B19: P06B05_D61S_Y62S (antibody, V domains shown)
VH: B7 VH with D61S, Y62S
VL: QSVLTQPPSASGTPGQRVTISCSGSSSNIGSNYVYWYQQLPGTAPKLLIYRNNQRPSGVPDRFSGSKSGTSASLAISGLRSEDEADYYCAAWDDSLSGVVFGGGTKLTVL
notes: Variant of P06B05
Cynomolgus PD-L1 protein [16]
  Kd: 2.15 nM
Human PD-L1 protein [17]
  Kd: 6.1 nM

B20: P06B05_D107L (antibody, V domains shown)
VH: B7 VH with D107L
VL: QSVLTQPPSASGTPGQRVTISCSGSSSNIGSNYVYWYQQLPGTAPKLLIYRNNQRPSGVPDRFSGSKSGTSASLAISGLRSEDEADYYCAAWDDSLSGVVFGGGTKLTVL
notes: Variant of P06B05
Cynomolgus PD-L1 protein [16]
  Kd: 83 nM
Human PD-L1 protein [17]
  Kd: 90.2 nM

B21: P06B05_D107S (antibody, V domains shown)
VH: B7 VH with D107S
VL: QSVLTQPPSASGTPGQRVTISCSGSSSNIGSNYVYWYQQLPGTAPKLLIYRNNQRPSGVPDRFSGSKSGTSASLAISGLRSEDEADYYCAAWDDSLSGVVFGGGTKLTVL
notes: Variant of P06B05
Cynomolgus PD-L1 protein [16]
  Kd: 26.3 nM
Human PD-L1 protein [17]
  Kd: 23.9 nM

B22: P06B05_D107Y (antibody, V domains shown)
VH: B7 VH with D107Y
VL: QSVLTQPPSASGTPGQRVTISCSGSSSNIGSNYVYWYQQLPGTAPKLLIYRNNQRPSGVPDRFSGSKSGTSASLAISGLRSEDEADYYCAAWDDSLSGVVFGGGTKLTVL
notes: Variant of P06B05
Cynomolgus PD-L1 protein [16]
  Kd: 3.23 nM
Human PD-L1 protein [17]
  Kd: 3.03 nM

B23: P06B05_G103I (antibody, V domains shown)
VH: B7 VH with G103I
VL: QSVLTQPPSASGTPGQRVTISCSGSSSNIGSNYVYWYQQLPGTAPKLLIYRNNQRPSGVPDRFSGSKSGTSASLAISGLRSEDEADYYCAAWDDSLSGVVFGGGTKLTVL
notes: Variant of P06B05
Cynomolgus PD-L1 protein [16]
  Kd: 8.11 nM
Human PD-L1 protein [17]
  Kd: 8.06 nM

B24: P06B05_G112A (antibody, V domains shown)
VH: B7 VH with G112A
VL: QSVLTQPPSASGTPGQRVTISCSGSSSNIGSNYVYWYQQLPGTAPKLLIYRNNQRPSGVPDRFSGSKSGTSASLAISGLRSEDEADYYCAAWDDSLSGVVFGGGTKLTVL
notes: Variant of P06B05
Cynomolgus PD-L1 protein [16]
  Kd: 3.72 nM
Human PD-L1 protein [17]
  Kd: 3.71 nM
Mouse PD-L1 protein [18]
  Kd: 131 nM

B25: P06B05_G112S (antibody, V domains shown)
VH: B7 VH with G112S
VL: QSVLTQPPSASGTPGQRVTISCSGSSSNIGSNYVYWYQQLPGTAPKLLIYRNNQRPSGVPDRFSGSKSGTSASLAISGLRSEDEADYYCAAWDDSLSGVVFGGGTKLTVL
notes: Variant of P06B05
Cynomolgus PD-L1 protein [16]
  Kd: 1.74 nM
Human PD-L1 protein [17]
  Kd: 1.69 nM
Mouse PD-L1 protein [18]
  Kd: 77.7 nM

B26: P06B05_M113L (antibody, V domains shown)
VH: B7 VH with M113L
VL: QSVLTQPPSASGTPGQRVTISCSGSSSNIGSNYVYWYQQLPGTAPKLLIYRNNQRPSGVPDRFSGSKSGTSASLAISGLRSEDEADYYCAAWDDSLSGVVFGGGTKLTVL
notes: Variant of P06B05
Cynomolgus PD-L1 protein [16]
  Kd: 6.55 nM
Human PD-L1 protein [17]
  Kd: 6.82 nM

B27: P06B05_S104A (antibody, V domains shown)
VH: B7 VH with S104A
VL: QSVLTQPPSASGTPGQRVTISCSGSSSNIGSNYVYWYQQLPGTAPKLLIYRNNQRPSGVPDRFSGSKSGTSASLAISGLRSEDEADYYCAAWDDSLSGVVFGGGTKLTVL
notes: Variant of P06B05
Cynomolgus PD-L1 protein [16]
  Kd: 3.93 nM
Human PD-L1 protein [17]
  Kd: 3.5 nM

B28: P06B05_S104E (antibody, V domains shown)
VH: B7 VH with S104E
VL: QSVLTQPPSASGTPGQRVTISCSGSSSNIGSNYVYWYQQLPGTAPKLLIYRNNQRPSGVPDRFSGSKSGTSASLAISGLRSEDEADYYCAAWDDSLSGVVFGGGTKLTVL
notes: Variant of P06B05
Cynomolgus PD-L1 protein [16]
  Kd: 0.45 nM
Human PD-L1 protein [17]
  Kd: 0.8 nM
Mouse PD-L1 protein [18]
  Kd: 23.1 nM

B29: P06B05_S104H (antibody, V domains shown)
VH: B7 VH with S104H
VL: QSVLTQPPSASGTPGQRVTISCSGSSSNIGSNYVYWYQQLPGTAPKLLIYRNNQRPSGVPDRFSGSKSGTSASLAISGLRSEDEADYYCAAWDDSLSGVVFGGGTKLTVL
notes: Variant of P06B05
Cynomolgus PD-L1 protein [16]
  Kd: 6.11 nM
Human PD-L1 protein [17]
  Kd: 7.9 nM

B30: P06B05_S104I (antibody, V domains shown)
VH: B7 VH with S104I
VL: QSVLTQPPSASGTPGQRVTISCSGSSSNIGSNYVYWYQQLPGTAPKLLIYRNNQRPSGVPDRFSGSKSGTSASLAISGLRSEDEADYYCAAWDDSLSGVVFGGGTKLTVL
notes: Variant of P06B05
Cynomolgus PD-L1 protein [16]
  Kd: 0.99 nM
Human PD-L1 protein [17]
  Kd: < 0.74 nM

B31: P06B05_S104Y (antibody, V domains shown)
VH: B7 VH with S104Y
VL: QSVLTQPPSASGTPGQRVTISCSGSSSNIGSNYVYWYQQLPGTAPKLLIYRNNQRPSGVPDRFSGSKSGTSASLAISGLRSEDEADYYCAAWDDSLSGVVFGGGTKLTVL
notes: Variant of P06B05
Cynomolgus PD-L1 protein [16]
  Kd: 5.79 nM
Human PD-L1 protein [17]
  Kd: 9.75 nM

B32: P06B05_V109S (antibody, V domains shown)
VH: B7 VH with V109S
VL: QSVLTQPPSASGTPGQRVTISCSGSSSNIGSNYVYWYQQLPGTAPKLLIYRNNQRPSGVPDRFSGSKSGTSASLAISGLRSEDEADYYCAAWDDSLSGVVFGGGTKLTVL
notes: Variant of P06B05
Cynomolgus PD-L1 protein [16]
  Kd: > 100 nM
Human PD-L1 protein [17]
  Kd: 76.5 nM

B33: P06B05_Y105H (antibody, V domains shown)
VH: B7 VH with Y105H
VL: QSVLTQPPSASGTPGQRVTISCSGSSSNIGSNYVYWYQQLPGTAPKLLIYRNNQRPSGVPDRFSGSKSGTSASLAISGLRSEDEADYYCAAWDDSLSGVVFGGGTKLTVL
notes: Variant of P06B05
Cynomolgus PD-L1 protein [16]
  Kd: 6.58 nM
Human PD-L1 protein [17]
  Kd: 12.8 nM

B34: PDL1_P06B05_245 (antibody, V domains shown)
VH: B7 VH with S104E
VL: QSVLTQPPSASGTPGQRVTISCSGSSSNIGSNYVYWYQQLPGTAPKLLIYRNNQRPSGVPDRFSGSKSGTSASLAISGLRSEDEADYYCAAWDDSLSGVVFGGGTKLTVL
notes: Monospecific antibody; also called anti-PD-L1 antibody P06B05_245
Cynomolgus PD-L1 protein [12]
  T1/2: 23.7 min
Human PD-L1 protein [13]
  T1/2: 23.4 min
Cynomolgus PD-L1 protein [14]
  Kd: 1.6 nM
Human PD-L1 protein [15]
  Kd: 1.6 nM
